Assay [1] addresses T1, rat PrRP receptor in RC-4B/C cells (rat, UniProt Q64121 1-370).
T1 construct: whole, on cells; also called the rat receptor; GPR10
T1 sequence (looked up): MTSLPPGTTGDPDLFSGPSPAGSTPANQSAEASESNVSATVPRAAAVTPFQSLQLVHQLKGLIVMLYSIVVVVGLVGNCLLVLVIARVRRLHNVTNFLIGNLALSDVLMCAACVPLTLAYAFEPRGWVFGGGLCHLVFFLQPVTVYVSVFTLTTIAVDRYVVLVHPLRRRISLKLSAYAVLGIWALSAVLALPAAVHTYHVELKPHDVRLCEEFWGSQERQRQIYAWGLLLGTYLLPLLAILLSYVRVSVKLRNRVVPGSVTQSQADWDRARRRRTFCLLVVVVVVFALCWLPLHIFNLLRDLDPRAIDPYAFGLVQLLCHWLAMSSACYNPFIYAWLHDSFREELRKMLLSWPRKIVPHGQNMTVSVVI
The experiment in a line: competition with 125I-rat PrRP31 on RC-4B/C cells. On the procedure:
The rat pituitary cell line RC-4B/C (ATCC, Manassas, USA) was grown on 24-well plates which had their bottom coated with polyethyleneimine. The cells were grown to the optimal density of 300-450 thousand per well.
(§1) Plates were incubated for 60 minutes at room temperature. After incubation, the cells were solubilized in 0.1 mol/l solution of NaOH and the radioactivity bound to the cells was counted using a γ-counter. The experiments were performed in duplicate and repeated at least three times.
For evaluation of competitive binding experiments, the program Graph Pad Prism Software (San Diego, Calif., USA) was used. A method of nonlinear regression assuming one-site binding was used.

Assay [2] has as its target T2, human PrRP receptor, GPR10, transfected in CHO cells (human, UniProt P49683 1-370).
T2 construct: whole, on cells; also called human GPR10 receptor; the human receptor GPR10 in CHO cells
T2 sequence (looked up): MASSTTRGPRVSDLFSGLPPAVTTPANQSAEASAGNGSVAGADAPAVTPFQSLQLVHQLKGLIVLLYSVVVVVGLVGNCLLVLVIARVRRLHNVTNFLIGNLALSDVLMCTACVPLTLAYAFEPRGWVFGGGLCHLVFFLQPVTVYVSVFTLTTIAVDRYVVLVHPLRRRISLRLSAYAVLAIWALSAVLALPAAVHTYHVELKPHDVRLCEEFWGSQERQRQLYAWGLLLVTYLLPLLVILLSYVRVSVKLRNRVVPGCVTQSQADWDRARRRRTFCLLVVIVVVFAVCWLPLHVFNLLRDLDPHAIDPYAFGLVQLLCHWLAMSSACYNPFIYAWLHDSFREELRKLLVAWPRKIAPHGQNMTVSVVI
Nature of the assay: competition with 125I-human PrRP31 on CHO cells with transfected human GPR10. As for the experimental part: CHO cells with transfected human PrRP receptor, GPR10 (Perkin Elmer, USA) were grown on 24-well plates coated with polyethyleneimine. The cells were grown to the optimal density of 40-80 thousand cells per well.
as §1

Where no end group is shown, it is not given here. [ ]: non-standard residue; d: D form. The star is where a group is joined. Phe(F5) = N[C@@H](Cc1c(F)c(F)c(F)c(F)c1F)C(=O)O; Stearoyl = CCCCCCCCCCCCCCCCCC(=O)*; Palmitoyl = CCCCCCCCCCCCCCCC(=O)*; Myristoyl = CCCCCCCCCCCCCC(=O)*; PheCl2 = dichlorophenylalanine; Lauroyl = CCCCCCCCCCCC(=O)*; PheNO2 = nitrophenylalanine; Decanoyl = CCCCCCCCCC(=O)*; Nle = CCCC[C@H](N)C(=O)O; Octanoyl = CCCCCCCC(=O)*; Sar = CNCC(=O)O

As to Lauroyl-SRAHQHS[Nle]ETRTPDINPAWYTGRGIRPVGRF-NH2 [analog no. 17], the Ki was found to be 0.39 nM in assay [1] and 1.19 nM in assay [2].
In the case of Palmitoyl-SRAHQHS[Nle]ETRTPDINPAWYTGRGIRPVGR[Phe(F5)]-NH2 [analog no. 33], the figures for the Ki in assay [1] and in assay [2] were 0.51 nM and 1.92 nM, respectively.
In the same order, the values of Decanoyl-SRAHQHS[Nle]ETRTPDINPAWYTGRGIRPVGRF-NH2 [analog no. 16] are 0.65 nM and 1.46 nM.
Taken in the same sequence, the figures for Myristoyl-SRAHQHS[Nle]ETRTPDINPAWYTGRGIRPVGR[PheNO2]-NH2 [analog no. 28] were 1.97 nM and 1.59 nM.
With Myristoyl-SRAHQHS[Nle]ETRTPDINPAWYTGRGIRPVGRF-NH2 [analog no. 18], the values for the Ki in assay [1] and in assay [2] were 0.69 nM and 0.71 nM, respectively.

B1: analog no. 38 (peptide)
peptide: TPDINPAWYTGR[Sar]IRPVGRF-NH2
modifications: N-terminus assumed
SMILES: CC[C@H](C)[C@H](NC(=O)CN(C)C(=O)[C@H](CCCNC(=N)N)NC(=O)CNC(=O)[C@@H](NC(=O)[C@H](Cc1ccc(O)cc1)NC(=O)[C@H](Cc1c[nH]c2ccccc12)NC(=O)[C@H](C)NC(=O)[C@@H]1CCCN1C(=O)[C@H](CC(N)=O)NC(=O)[C@@H](NC(=O)[C@H](CC(=O)O)NC(=O)[C@@H]1CCCN1C(=O)[C@@H](N)[C@@H](C)O)[C@@H](C)CC)[C@@H](C)O)C(=O)N[C@@H](CCCNC(=N)N)C(=O)N1CCC[C@H]1C(=O)N[C@H](C(=O)NCC(=O)N[C@@H](CCCNC(=N)N)C(=O)N[C@@H](Cc1ccccc1)C(N)=O)C(C)C
On to B1, for which the Ki in assay [1] came out at 7.94 nM; in assay [2], 4.51 nM.
SRAHQHS[Nle]ETRTPDINPAWYTGRGIRPVGR[Phe(F5)]-NH2 [analog no. 32]: the results for the Ki in assay [1] and in assay [2] were 9.69 nM and 8.59 nM, respectively.
In the case of [code f][code r]GVPRIGRGTYWAPNIDPT-NH2 [analog no. 36], the Ki was 5200 nM in assay [1] and 6290 nM in assay [2].

B2: analog no. 39 (peptide)
peptide: Myristoyl-TPDINPAWYTGR[Sar]IRPVGRF-NH2
SMILES: CCCCCCCCCCCCCC(=O)N[C@H](C(=O)N1CCC[C@H]1C(=O)N[C@@H](CC(=O)O)C(=O)N[C@H](C(=O)N[C@@H](CC(N)=O)C(=O)N1CCC[C@H]1C(=O)N[C@@H](C)C(=O)N[C@@H](Cc1c[nH]c2ccccc12)C(=O)N[C@@H](Cc1ccc(O)cc1)C(=O)N[C@H](C(=O)NCC(=O)N[C@@H](CCCNC(=N)N)C(=O)N(C)CC(=O)N[C@H](C(=O)N[C@@H](CCCNC(=N)N)C(=O)N1CCC[C@H]1C(=O)N[C@H](C(=O)NCC(=O)N[C@@H](CCCNC(=N)N)C(=O)N[C@@H](Cc1ccccc1)C(N)=O)C(C)C)[C@@H](C)CC)[C@@H](C)O)[C@@H](C)CC)[C@@H](C)O
Take B2: the Ki in assay [1] stood at 0.32 nM; in assay [2], 3.12 nM.
On to SRAHQHS[Nle]ETRTPDINPAWYTGRGIRPVGR[PheCl2]-NH2 [analog no. 24], for which the Ki stood at 3.84 nM in assay [1] and 2.27 nM in assay [2].
On to Palmitoyl-SRAHQHS[Nle]ETRTPDINPAWYTGRGIRPVGRF-NH2 [analog no. 19], for which the results for the Ki in assay [1] and in assay [2] were 0.51 nM and 3.03 nM, respectively.
Taken in the same sequence, the figures for Octanoyl-SRAHQHS[Nle]ETRTPDINPAWYTGRGIRPVGRF-NH2 [analog no. 15] were 0.98 nM and 1.53 nM.
For the molecule Myristoyl-SRAHQHS[Nle]ETRTPDINPAWYTGRGIRPVGR[PheCl2]-NH2 [analog no. 25], the Ki in assay [1] is 1.79 nM; in assay [2] it was 0.95 nM.
Turning to Palmitoyl-SRAHQHS[Nle]ETRTPDINPAWYTGRGIRPVGR[PheNO2]-NH2 [analog no. 29], the Ki in assay [1] was determined as 0.58 nM; in assay [2] it was 0.77 nM.

B3: analog no. 34 (peptide)
peptide: SRAHQHS[Nle]ETRTPDINPAWYTGRGIRPVGRY-NH2
modifications: N-terminus assumed
SMILES: CCCC[C@H](NC(=O)[C@H](CO)NC(=O)[C@H](Cc1c[nH]cn1)NC(=O)[C@H](CCC(N)=O)NC(=O)[C@H](Cc1c[nH]cn1)NC(=O)[C@H](C)NC(=O)[C@H](CCCNC(=N)N)NC(=O)[C@@H](N)CO)C(=O)N[C@@H](CCC(=O)O)C(=O)N[C@H](C(=O)N[C@@H](CCCNC(=N)N)C(=O)N[C@H](C(=O)N1CCC[C@H]1C(=O)N[C@@H](CC(=O)O)C(=O)N[C@H](C(=O)N[C@@H](CC(N)=O)C(=O)N1CCC[C@H]1C(=O)N[C@@H](C)C(=O)N[C@@H](Cc1c[nH]c2ccccc12)C(=O)N[C@@H](Cc1ccc(O)cc1)C(=O)N[C@H](C(=O)NCC(=O)N[C@@H](CCCNC(=N)N)C(=O)NCC(=O)N[C@H](C(=O)N[C@@H](CCCNC(=N)N)C(=O)N1CCC[C@H]1C(=O)N[C@H](C(=O)NCC(=O)N[C@@H](CCCNC(=N)N)C(=O)N[C@@H](Cc1ccc(O)cc1)C(N)=O)C(C)C)[C@@H](C)CC)[C@@H](C)O)[C@@H](C)CC)[C@@H](C)O)[C@@H](C)O
notes: Tyr at position 31 in place of Phe
Turning to B3, the figures for the Ki in assay [1] and in assay [2] were 3.25 nM and 2.02 nM, respectively.

B4: analog no. 35 (peptide)
peptide: Palmitoyl-SRAHQHS[Nle]ETRTPDINPAWYTGRGIRPVGRY-NH2
SMILES: CCCCCCCCCCCCCCCC(=O)N[C@@H](CO)C(=O)N[C@@H](CCCNC(=N)N)C(=O)N[C@@H](C)C(=O)N[C@@H](Cc1c[nH]cn1)C(=O)N[C@@H](CCC(N)=O)C(=O)N[C@@H](Cc1c[nH]cn1)C(=O)N[C@@H](CO)C(=O)N[C@@H](CCCC)C(=O)N[C@@H](CCC(=O)O)C(=O)N[C@H](C(=O)N[C@@H](CCCNC(=N)N)C(=O)N[C@H](C(=O)N1CCC[C@H]1C(=O)N[C@@H](CC(=O)O)C(=O)N[C@H](C(=O)N[C@@H](CC(N)=O)C(=O)N1CCC[C@H]1C(=O)N[C@@H](C)C(=O)N[C@@H](Cc1c[nH]c2ccccc12)C(=O)N[C@@H](Cc1ccc(O)cc1)C(=O)N[C@H](C(=O)NCC(=O)N[C@@H](CCCNC(=N)N)C(=O)NCC(=O)N[C@H](C(=O)N[C@@H](CCCNC(=N)N)C(=O)N1CCC[C@H]1C(=O)N[C@H](C(=O)NCC(=O)N[C@@H](CCCNC(=N)N)C(=O)N[C@@H](Cc1ccc(O)cc1)C(N)=O)C(C)C)[C@@H](C)CC)[C@@H](C)O)[C@@H](C)CC)[C@@H](C)O)[C@@H](C)O
notes: as for B3
On to B4, for which the Ki was found to be 0.44 nM in assay [1] and 1.57 nM in assay [2].
With SRAHQHS[Nle]ETRTPDINPAWYTGRGIRPVGR[PheNO2]-NH2 [analog no. 27], the figures for the Ki in assay [1] and in assay [2] were 19.9 nM and 4.8 nM, respectively.
For Stearoyl-SRAHQHS[Nle]ETRTPDINPAWYTGRGIRPVGRF-NH2 [analog no. 20], the Ki in assay [1] stood at 0.96 nM; in assay [2] it was 5.39 nM.
For the molecule Palmitoyl-SRAHQHS[Nle]ETRTPDINPAWYTGRGIRPVGR[PheCl2]-NH2 [analog no. 26], the Ki was found to be 1.3 nM in assay [1] and 1.05 nM in assay [2].
Consider Myristoyl-SHQRPADTHWYPRG[Nle]FPTIGRITARNGEVSR (printed without a C-terminal amide) [analog no. 31], for which the Ki in assay [1] was found to be 123 nM; in assay [2] it was 262 nM.

The term Ki denotes a dissociation constant, usually derived from enzyme kinetics or from competition with a known ligand.

The values above are taken from patent US9937235B2, “Lipidated peptides as anti-obesity agents” (USTAV ORGANICKE CHEMIE A BIOCHEMIE AKADEMIE VED CR, V.V.I, priority 2012, dated 2018).
